The nature of assay [1]: Washing test in Linitest with European-formulation detergent (Example 20). The note with it: analogous to Example 19. How it is done:
The washing tests were carried out in a Linitest with EMPA 117 (11 cm×11 cm; polyester/cotton blended fabric, soiled with milk, blood and permanent ink) as the test fabric (purchased from the Eidgenoessische Material pruefungsanstalt, Sankt Gallen, Switzerland)- Washing was carried out with 6 g/l IEC test detergent with perborate, type 1 (Lever Sunlicht GmbH, Mannheim; composition: 6.4% by weight linear alkylsulfonates, 2.3% by weight ethoxylated fatty alcohols with 14% ethoxy groups, 2.8% by weight sodium soap, 35% by weight sodium tripolyphosphate, 6% by weight sodium silicate, 1.5% by weight magnesium silicate, 1% by weight carboxy/methylcellulose, 0.2% by weight ethylenediaminetetraacetic acid (EDTA), 0.2% by weight optical brightener (stilbene type), 16.8% by weight sodium sulfate, and 7.8% by weight water as a spray-dried powder without bleach activator plus 20% by weight sodium perborate tetrahydrate) in water having a hardness of 15° on the German hardness scale. The pH of the wash liquor was pH 10.5. The washing time was 30 minutes at 45° C., and in each case 20 U of protease (prepared as described in Example 18) were employed per 100 ml. After the washing process was complete, the pieces of fabric were rinsed three times with tap water, dried and subsequently ironed. The reflection of the pieces of test cloth was determined four times on each side. […]

Assay [2] in a line: Washing test in Linitest with IEC test detergent with perborate (Example 19). As to conditions: pH 10.5, 30 minutes at 45° C. How it is done: The washing tests were carried out in a Linitest with EMPA 117 (11 cm×11 cm; polyester/cotton blended fabric, soiled with milk, blood and permanent ink) as the test fabric (purchased from the Eidgenoessische Material pruefungsanstalt, Sankt Gallen, Switzerland)- Washing was carried out with 6 g/l IEC test detergent with perborate, type 1 (Lever Sunlicht GmbH, Mannheim; composition: 6.4% by weight linear alkylsulfonates, 2.3% by weight ethoxylated fatty alcohols with 14% ethoxy groups, 2.8% by weight sodium soap, 35% by weight sodium tripolyphosphate, 6% by weight sodium silicate, 1.5% by weight magnesium silicate, 1% by weight carboxy/methylcellulose, 0.2% by weight ethylenediaminetetraacetic acid (EDTA), 0.2% by weight optical brightener (stilbene type), 16.8% by weight sodium sulfate, and 7.8% by weight water as a spray-dried powder without bleach activator plus 20% by weight sodium perborate tetrahydrate) in water having a hardness of 15° on the German hardness scale. The pH of the wash liquor was pH 10.5. The washing time was 30 minutes at 45° C., and in each case 20 U of protease (prepared as described in Example 18) were employed per 100 ml. After the washing process was complete, the pieces of fabric were rinsed three times with tap water, dried and subsequently ironed. The reflection of the pieces of test cloth was determined four times on each side.

B1: Initial protease: non-mutated highly alkaline protease from Bacillus alcalophilus HA1 (DSM 5466), amino-acid sequence of FIG. 1 (SEQ. ID. NO. 2) (protein)
chain: MKKPLGKIVASTALLISVAFSSSIASAAEEAKEKYLIGFNEQEAVSEFVEQVEANDEVAILSEEEEVEIELLHEFETIPVLSVELSPEDVDALELDPAISYIEEDAEVTTMAQSVPWGISRVQAPAAHNRGLTGSGVKVAVLDTGISTHPDLNIRGGASFVPGEPSTQDGNGHGTHVAGTIAALNNSIGVLGVAPSAELYAVKVLGASGSGSVSSIAQGLEWAGNNGMHVANLSLGSPSPSATLEQAVNSATSRGVLVVAASGNSGAGSISYPARYANAMAVGATDQNNNRASFSQYGAGLDIVAPGVNVQSTYPGSTYASLNGTSMATPHVAGAAALVKQKNPSWSNV
Consider B1, for which the Reflection in assay [1] (detergent in a formulation suitable for Europe (anionic and non-ionic surfactant, sodium tripolyphosphate, sodium perborate)) is on record as 65.6%; in assay [2] (6 g/l IEC test detergent with perborate, type 1, 20 U of protease per 100 ml, averages of 16 washing tests) it was 71.1%. Also, the “Relative Reflection” value in assay [1] (relative to initial protease = 100%, detergent in a formulation suitable for Europe) worked out at 100%; in assay [2] (relative to initial protease = 100%, IEC test detergent with perborate, 20 U protease per 100 ml), 100%.

The values are drawn from patent US5352603A, “Highly alkaline proteases” (Kali-Chemie AG, priority 1989, dated 1994).
